From patent publication US20240026037A1 (Memorial Sloan Kettering, published 2024)

B1: BC015 (G3A H1L4) (bispecific antibody, human IgG1, kappa, N297A)
heavy: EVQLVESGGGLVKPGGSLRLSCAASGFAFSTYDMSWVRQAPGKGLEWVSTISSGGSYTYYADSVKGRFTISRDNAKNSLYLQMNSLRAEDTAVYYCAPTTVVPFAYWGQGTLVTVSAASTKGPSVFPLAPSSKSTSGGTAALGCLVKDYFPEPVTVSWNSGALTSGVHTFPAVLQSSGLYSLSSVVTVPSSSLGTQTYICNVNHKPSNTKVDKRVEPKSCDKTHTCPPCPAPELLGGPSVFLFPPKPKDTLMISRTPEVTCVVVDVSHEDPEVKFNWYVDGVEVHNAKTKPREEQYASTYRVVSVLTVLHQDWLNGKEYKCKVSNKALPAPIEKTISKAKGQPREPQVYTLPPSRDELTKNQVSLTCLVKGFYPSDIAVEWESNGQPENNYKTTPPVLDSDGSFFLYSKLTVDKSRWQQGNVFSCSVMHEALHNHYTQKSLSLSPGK
light: DIQMTQSPSSLSASVGDRVTITCKASQNVRTVVAWYQQKPGKAPKTLIYLASNRHTGVPSRFSGSGSGTEFTLTISNLQPEDFATYYCLQHWSYPLTFGSGTKLEVKRTVAAPSVFIFPPSDEQLKSGTASVVCLLNNFYPREAKVQWKVDNALQSGNSQEKSVTEQDSKDSTYSLSSTLTLSKADYEKHKVYACEVTHQGLSSPVTKSFNRGECTSGGGGSGGGGSGGGGSHVQLVESGGGLVQPGGSLRLSCAASGFSLTDYGVHWVRQAPGKGLEWLGVIWSGGGTAYNTALISRFTISRDNSKNTLYLQMNSLRAEDTAVYYCARRGSYPYNYFDAWGCGTLVTVSSGGGGSGGGGSGGGGSGGGGSGGGGSGGGGSQAVVTQEPSLTVSPGGTVTLTCGSSTGAVTASNYANWVQQKPGQCPRGLIGGHNNRPPGVPARFSGSLLGGKAALTLLGAQPEDEAEYYCALWYSDHWVIGGGTKLTVLG
notes: GPA33xDOTA IgG-[L]-scFv with human IgG1 constant region carrying N297A and K322A; The anti-DOTA scFv is fused to the C-terminus of the light chain; also called BC177; GPA33 BsAb-IgG (BC177)
B2: TC171 (bispecific antibody)
chain: DIQMTQSPSSLSASVGDRVTITCKASQNVRTVVAWYQQKPGKAPKTLIYLASNRHTGVPSRFSGSGSGTEFTLTISNLQPEDFATYYCLQHWSYPLTFGSGTKLEVKRGGGGSGGGGSGGGGSGGGGSGGGGSGGGGSEVQLVESGGGLVKPGGSLRLSCAASGFAFSTYDMSWVRQAPGKGLEWVSTISSGGSYTYYADSVKGRFTISRDNAKNSLYLQMNSLRAEDTAVYYCAPTTVVPFAYWGQGTLVTVSAGGGGSGGGGSGGGGSGGGGSHVQLVESGGGLVQPGGSLRLSCAASGFSLTDYGVHWVRQAPGKGLEWLGVIWSGGGTAYNTALISRFTISRDNSKNTLYLQMNSLRAEDTAVYYCARRGSYPYNYFDAWGCGTLVTVSSGGGGSGGGGSGGGGSGGGGSGGGGSGGGGSQAVVTQEPSLTVSPGGTVTLTCGSSTGAVTASNYANWVQQKPGQCPRGLIGGHNNRPPGVPARFSGSLLGGKAALTLLGAQPEDEAEYYCALWYSDHWVIGGGTKLTVLGTPLGDTTHTSGKPLDGEYFTLQIRGRERFEMFRELNEALELKDAQAGKEPGGSGGAPHHHHHH
notes: As TC170, with the other VH/VL orientation of the anti-GPA33 scFv; Carries the p53 SADA (tetramerization) domain; also called GPA33xDOTA SADA
B3: TC170 (bispecific antibody)
chain: EVQLVESGGGLVKPGGSLRLSCAASGFAFSTYDMSWVRQAPGKGLEWVSTISSGGSYTYYADSVKGRFTISRDNAKNSLYLQMNSLRAEDTAVYYCAPTTVVPFAYWGQGTLVTVSAGGGGSGGGGSGGGGSGGGGSGGGGSGGGGSDIQMTQSPSSLSASVGDRVTITCKASQNVRTVVAWYQQKPGKAPKTLIYLASNRHTGVPSRFSGSGSGTEFTLTISNLQPEDFATYYCLQHWSYPLTFGSGTKLEVKRGGGGSGGGGSGGGGSGGGGSHVQLVESGGGLVQPGGSLRLSCAASGFSLTDYGVHWVRQAPGKGLEWLGVIWSGGGTAYNTALISRFTISRDNSKNTLYLQMNSLRAEDTAVYYCARRGSYPYNYFDAWGCGTLVTVSSGGGGSGGGGSGGGGSGGGGSGGGGSGGGGSQAVVTQEPSLTVSPGGTVTLTCGSSTGAVTASNYANWVQQKPGQCPRGLIGGHNNRPPGVPARFSGSLLGGKAALTLLGAQPEDEAEYYCALWYSDHWVIGGGTKLTVLGTPLGDTTHTSGKPLDGEYFTLQIRGRERFEMFRELNEALELKDAQAGKEPGGSGGAPHHHHHH
notes: Single chain: anti-GPA33 scFv, anti-DOTA (C825) scFv, p53 SADA domain; The copy number 4 comes from the p53 tetramerization domain; the self-assembling and disassembling state depends on concentration; also called GPA33 SADA (TC170); GPA33xDOTA SADA

Legend:
[1] = biological target: T1, Human GPA33 on GPA33+ colorectal cancer cell lines (Colo 205, LS 174T, SW 1222) (human, UniProt Q99795 22-319); assay: FACS titration on Colo205 cells, geometric mean MFI
T1 construct: Endogenous GPA33 on human colorectal cancer cell lines; also called surface human GPA33; GPA33+ tumor cell lines
T1 sequence: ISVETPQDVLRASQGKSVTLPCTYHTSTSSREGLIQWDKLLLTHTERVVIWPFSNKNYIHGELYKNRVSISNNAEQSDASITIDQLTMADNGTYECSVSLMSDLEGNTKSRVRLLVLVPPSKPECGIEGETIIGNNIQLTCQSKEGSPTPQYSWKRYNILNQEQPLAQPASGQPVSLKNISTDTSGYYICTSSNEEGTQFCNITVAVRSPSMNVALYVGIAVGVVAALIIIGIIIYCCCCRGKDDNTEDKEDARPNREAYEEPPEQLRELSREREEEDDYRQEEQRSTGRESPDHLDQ

[2] = biological target: T2, Human GPA33 (recombinant protein, Novoprotein) (human, UniProt Q99795 22-235); assay: SPR (Biacore), human GPA33 immobilized on CM5 chip, two-state fit
T2 construct: Bought recombinant protein immobilized on a CM5 chip; also called GPA33 antigen; tumor antigen GPA33
T2 sequence: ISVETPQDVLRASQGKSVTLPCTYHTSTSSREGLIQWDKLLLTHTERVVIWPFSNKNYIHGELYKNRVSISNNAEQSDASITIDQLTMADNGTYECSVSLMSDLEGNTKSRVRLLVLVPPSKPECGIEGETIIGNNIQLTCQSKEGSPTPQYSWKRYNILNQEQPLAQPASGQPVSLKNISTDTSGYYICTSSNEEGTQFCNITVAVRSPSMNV
Protocol: (§1) SPR analysis. Human GPA33 (Novoprotein, Summit, NJ) was immobilized on CM5 chips. Five concentrations of 2-fold serially diluted huA33 IgG1 or huA33-BsAbs (starting at 20 nM) were flowed over the chip using a Biacore™ T100 system (GE Healthcare, Chicago, IL). Binding kinetics of huA33 were measured at 25° C. and binding kinetics of huA33-BsAbs were measured at both 25° C. and 37° C. The sensorgrams were fitted with two state binding model for both to derive kinetic parameters.

[3] = biological target: T1, Human GPA33 on GPA33+ colorectal cancer …; assay: FACS titration on LS174T cells, geometric mean MFI [Cont.]
[4] = biological target: T1, Human GPA33 on GPA33+ colorectal cancer …; assay: FACS titration on SW1222 cells, geometric mean MFI [Cont.]
[5] = biological target: T2, Human GPA33 (recombinant protein, …); assay: SPR (Biacore), human GPA33 immobilized on CM5 chip, two-state fit, ka1
Protocol: as §1

[6] = biological target: T2, Human GPA33 (recombinant protein, …); assay: SPR (Biacore), human GPA33 immobilized on CM5 chip, two-state fit, kd1
Method in brief: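 The off-rate (kd1) was measured by surface plasmon resonance on a Biacore T100, with recombinant human GPA33 (Novoprotein) immobilised on a CM5 chip. Antibodies were flowed over at five concentrations, 2-fold serial dilutions starting at 20 nM. The parent IgG1 was run at 25° C and bispecific formats at 25° C and 37° C. Sensorgrams were fitted with a two-state binding model to derive the kinetic parameters.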

[7] = biological target: T2, Human GPA33 (recombinant protein, …); assay: SPR (Biacore), human GPA33 immobilised on the chip; reference row
Method in brief: (§2)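 Surface plasmon resonance on a Biacore system with immobilised recombinant human GPA33 (Novoprotein) was used to determine KD by kinetic fitting. The values given are each KD divided by the KD of a reference molecule.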

[8] = biological target: T1, Human GPA33 on GPA33+ colorectal cancer …; assay: flow cytometry, LS 174T cells
[9] = biological target: T1, Human GPA33 on GPA33+ colorectal cancer …; assay: flow cytometry, SW 1222 cells
[10] = biological target: T1, Human GPA33 on GPA33+ colorectal cancer …; assay: flow cytometry, Colo 205 cells; Colo 205 cells
[11] = biological target: T1, Human GPA33 on GPA33+ colorectal cancer …; assay: FACS binding to LS174T cells (GPA33+)
[12] = biological target: T1, Human GPA33 on GPA33+ colorectal cancer …; assay: FACS binding to SW1222 cells (GPA33+)
[13] = biological target: T1, Human GPA33 on GPA33+ colorectal cancer …; assay: FACS binding to Colo205 cells (GPA33+)
[14] = biological target: T1, Human GPA33 on GPA33+ colorectal cancer …; assay: FACS binding to SW1222 cells (GPA33+); the text prints 1.78 nM for this pair
[15] = biological target: T2, Human GPA33 (recombinant protein, …); assay: SPR (Biacore), human GPA33 immobilised on the chip; KD relative to that of TC170
Method in brief: as §2

[16] = biological target: T1, Human GPA33 on GPA33+ colorectal cancer …; assay: FACS titration on SW1222 cells, geometric mean MFI (the text prints 1.78 nM and calls it IC50) [Cont.]
[17] = biological target: T1, Human GPA33 on GPA33+ colorectal cancer …; assay: FACS titration on SW1222 cells, geometric mean MFI (same value as in FIG. 4A; the text prints 1.78 nM) [contd.]
[18] = biological target: T1, Human GPA33 on GPA33+ colorectal cancer …; assay: FACS binding to LS174T cells (GPA33+); reference row
[19] = biological target: T1, Human GPA33 on GPA33+ colorectal cancer …; assay: FACS binding to SW1222 cells (GPA33+); reference row
[20] = biological target: T1, Human GPA33 on GPA33+ colorectal cancer …; assay: FACS binding to Colo205 cells (GPA33+); reference row
[21] = biological target: T2, Human GPA33 (recombinant protein, …); assay: SPR (Biacore), human GPA33 immobilised on the chip; reference row; remark: listed apart in the source
Method in brief: as §2

[22] = biological target: T1, Human GPA33 on GPA33+ colorectal cancer …; assay: FACS titration on Colo205 cells, geometric mean MFI (the text prints 0.74 nM and calls it IC50)
[23] = biological target: T1, Human GPA33 on GPA33+ colorectal cancer …; assay: FACS titration on Colo205 cells, geometric mean MFI (same value as in FIG. 4A; the text prints 0.74 nM)

Row | Binder | Kd [2] | ka2 [2] | kd2 [2] | kon [5] | koff [6] | IC50 [8] | IC50 [9] | EC50 [10] | also measured
1 | B1 | 0.118 nM | 0.00307 s⁻¹ | 0.00177 s⁻¹ | 4.36e+06 M⁻¹ s⁻¹ | 0.00141 s⁻¹ | – | – | – | EC50 [1]: 1.04 nM; EC50 [3]: 0.39 nM; EC50 [4]: 0.71 nM; Fold change of KD (relative to BC015, lower is better) [7]: 1
2 | B2 | 0.023 nM | 0.00663 s⁻¹ | 0.000628 s⁻¹ | 3.34e+06 M⁻¹ s⁻¹ | 0.000886 s⁻¹ | 0.56 nM | 1.78 nM | 1.04 nM | fold change of binding EC50 (relative to TC170, lower is better) [11]: 1.81; fold change of binding EC50 (relative to TC170, lower is better) [12]: 1.07; fold change of binding EC50 (relative to TC170, lower is better) [13]: 1.41; EC50 [14]: 1.77 nM; Fold change of KD (relative to TC170, lower is better) [15]: 1.5; EC50 [16]: 0.77 nM; EC50 [17]: 0.77 nM
3 | B3 | 0.0158 nM | 0.00646 s⁻¹ | 0.000538 s⁻¹ | 3.54e+06 M⁻¹ s⁻¹ | 0.000728 s⁻¹ | 0.31 nM | 1.65 nM | 0.74 nM | fold change of binding EC50 (relative to TC170, lower is better) [18]: 1; fold change of binding EC50 (relative to TC170, lower is better) [19]: 1; fold change of binding EC50 (relative to TC170, lower is better) [20]: 1; Fold change of KD (relative to TC170, lower is better) [21]: 1; EC50 [22]: 0.73 nM; EC50 [23]: 0.73 nM
